± gives the uncertainty stated by the source.
Assay: abundance fitness (aPCA) (normalised: wild type 0, dead -1); higher = more abundant; growth selection in yeast, the domain comes from the species named
Conditions: Homo sapiens
Work on “Scaffold attachment factor B1 K54M, Q15424” yielded an abundance fitness of -0.443 ± 0.087. In the case of “Scaffold attachment factor B1 K54N, Q15424”, the abundance fitness is reported as -0.444 ± 0.075. “Scaffold attachment factor B1 K54P, Q15424” gave an abundance fitness of -0.25 ± 0.082. In the case of “Scaffold attachment factor B1 K54Q, Q15424”, the abundance fitness is reported as -0.115 ± 0.066. For “Scaffold attachment factor B1 K54R, Q15424”, the abundance fitness was -0.063 ± 0.047. Substance “Scaffold attachment factor B1 K54S, Q15424” has an abundance fitness of -0.259 ± 0.072. In the case of “Scaffold attachment factor B1 K54T, Q15424”, the abundance fitness is reported as -0.189 ± 0.057. For “Scaffold attachment factor B1 K54V, Q15424”, the abundance fitness was -0.221 ± 0.049. With “Scaffold attachment factor B1 K54W, Q15424” the abundance fitness was -0.255 ± 0.056. Substance “Scaffold attachment factor B1 K54Y, Q15424” has an abundance fitness of -0.157 ± 0.059. Work on “Scaffold attachment factor B1 K62A, Q15424” yielded an abundance fitness of -0.073 ± 0.052. For “Scaffold attachment factor B1 K62C, Q15424”, the abundance fitness was -0.27 ± 0.057. Work on “Scaffold attachment factor B1 K62D, Q15424” yielded an abundance fitness of -0.403 ± 0.089. For “Scaffold attachment factor B1 K62E, Q15424”, the abundance fitness was -0.287 ± 0.053. “Scaffold attachment factor B1 K62F, Q15424” gave an abundance fitness of -0.366 ± 0.078. “Scaffold attachment factor B1 K62G, Q15424” gave an abundance fitness of -0.191 ± 0.048. For “Scaffold attachment factor B1 K62H, Q15424”, the abundance fitness was -0.211 ± 0.066. In the case of “Scaffold attachment factor B1 K62I, Q15424”, the abundance fitness is reported as -0.336 ± 0.078. Work on “Scaffold attachment factor B1 K62L, Q15424” yielded an abundance fitness of -0.204 ± 0.054. “Scaffold attachment factor B1 K62M, Q15424” gave an abundance fitness of -0.254 ± 0.078. “Scaffold attachment factor B1 K62N, Q15424” gave an abundance fitness of -0.231 ± 0.096. “Scaffold attachment factor B1 K62P, Q15424” gave an abundance fitness of -0.728 ± 0.065. “Scaffold attachment factor B1 K62R, Q15424” showed an abundance fitness of -0.089 ± 0.048. With “Scaffold attachment factor B1 K62T, Q15424” the abundance fitness was -0.212 ± 0.072. Substance “Scaffold attachment factor B1 K62V, Q15424” has an abundance fitness of -0.246 ± 0.052. In the case of “Scaffold attachment factor B1 K62W, Q15424”, the abundance fitness is reported as -0.366 ± 0.065. “Scaffold attachment factor B1 K62Y, Q15424” showed an abundance fitness of -0.285 ± 0.087. “Scaffold attachment factor B1 K63A, Q15424” gave an abundance fitness of -0.202 ± 0.053. Work on “Scaffold attachment factor B1 K63C, Q15424” yielded an abundance fitness of -0.234 ± 0.048. In the case of “Scaffold attachment factor B1 K63D, Q15424”, the abundance fitness is reported as -0.255 ± 0.094. Work on “Scaffold attachment factor B1 K63F, Q15424” yielded an abundance fitness of -0.432 ± 0.061. “Scaffold attachment factor B1 K63H, Q15424” showed an abundance fitness of -0.541 ± 0.1. For “Scaffold attachment factor B1 K63I, Q15424”, the abundance fitness was -0.394 ± 0.09. In the case of “Scaffold attachment factor B1 K63L, Q15424”, the abundance fitness is reported as -0.237 ± 0.044. Substance “Scaffold attachment factor B1 K63M, Q15424” has an abundance fitness of -0.43 ± 0.07. Substance “Scaffold attachment factor B1 K63P, Q15424” has an abundance fitness of -0.61 ± 0.054. Substance “Scaffold attachment factor B1 K63Q, Q15424” has an abundance fitness of -0.085 ± 0.079. In the case of “Scaffold attachment factor B1 K63R, Q15424”, the abundance fitness is reported as -0.144 ± 0.055. Substance “Scaffold attachment factor B1 K63T, Q15424” has an abundance fitness of -0.238 ± 0.081. In the case of “Scaffold attachment factor B1 K63V, Q15424”, the abundance fitness is reported as -0.185 ± 0.056. For “Scaffold attachment factor B1 K63W, Q15424”, the abundance fitness was -0.398 ± 0.057. Substance “Scaffold attachment factor B1 K63Y, Q15424” has an abundance fitness of -0.42 ± 0.067. “Scaffold attachment factor B1 L31A, Q15424” gave an abundance fitness of -0.333 ± 0.069. For “Scaffold attachment factor B1 L31C, Q15424”, the abundance fitness was -0.553 ± 0.069. In the case of “Scaffold attachment factor B1 L31D, Q15424”, the abundance fitness is reported as -0.498 ± 0.075. With “Scaffold attachment factor B1 L31E, Q15424” the abundance fitness was -0.496 ± 0.076. For “Scaffold attachment factor B1 L31F, Q15424”, the abundance fitness was -0.417 ± 0.098. “Scaffold attachment factor B1 L31G, Q15424” gave an abundance fitness of -0.536 ± 0.06. In the case of “Scaffold attachment factor B1 L31H, Q15424”, the abundance fitness is reported as -0.575 ± 0.072. “Scaffold attachment factor B1 L31I, Q15424” showed an abundance fitness of -0.17 ± 0.06. Work on “Scaffold attachment factor B1 L31K, Q15424” yielded an abundance fitness of -0.66 ± 0.093. In the case of “Scaffold attachment factor B1 L31M, Q15424”, the abundance fitness is reported as -0.338 ± 0.087. Substance “Scaffold attachment factor B1 L31P, Q15424” has an abundance fitness of -0.748 ± 0.071. For “Scaffold attachment factor B1 L31Q, Q15424”, the abundance fitness was -0.623 ± 0.08. In the case of “Scaffold attachment factor B1 L31R, Q15424”, the abundance fitness is reported as -0.509 ± 0.051. “Scaffold attachment factor B1 L31S, Q15424” showed an abundance fitness of -0.547 ± 0.068. With “Scaffold attachment factor B1 L31T, Q15424” the abundance fitness was -0.53 ± 0.1. For “Scaffold attachment factor B1 L31V, Q15424”, the abundance fitness was -0.188 ± 0.06. Work on “Scaffold attachment factor B1 L31W, Q15424” yielded an abundance fitness of -0.628 ± 0.052. Work on “Scaffold attachment factor B1 L31Y, Q15424” yielded an abundance fitness of -0.471 ± 0.07. For “Scaffold attachment factor B1 L34A, Q15424”, the abundance fitness was -0.482 ± 0.064. “Scaffold attachment factor B1 L34C, Q15424” showed an abundance fitness of -0.321 ± 0.079. Work on “Scaffold attachment factor B1 L34D, Q15424” yielded an abundance fitness of -0.632 ± 0.081. For “Scaffold attachment factor B1 L34E, Q15424”, the abundance fitness was -0.719 ± 0.084. In the case of “Scaffold attachment factor B1 L34F, Q15424”, the abundance fitness is reported as -0.212 ± 0.06. With “Scaffold attachment factor B1 L34G, Q15424” the abundance fitness was -0.576 ± 0.056. “Scaffold attachment factor B1 L34I, Q15424” showed an abundance fitness of -0.433 ± 0.096. “Scaffold attachment factor B1 L34M, Q15424” showed an abundance fitness of -0.067 ± 0.083. “Scaffold attachment factor B1 L34N, Q15424” showed an abundance fitness of -0.496 ± 0.078. “Scaffold attachment factor B1 L34P, Q15424” gave an abundance fitness of -0.619 ± 0.074. With “Scaffold attachment factor B1 L34Q, Q15424” the abundance fitness was -0.527 ± 0.087. For “Scaffold attachment factor B1 L34R, Q15424”, the abundance fitness was -0.554 ± 0.053. With “Scaffold attachment factor B1 L34S, Q15424” the abundance fitness was -0.433 ± 0.065. In the case of “Scaffold attachment factor B1 L34T, Q15424”, the abundance fitness is reported as -0.452 ± 0.066. “Scaffold attachment factor B1 L34V, Q15424” gave an abundance fitness of -0.738 ± 0.058. “Scaffold attachment factor B1 L34W, Q15424” showed an abundance fitness of -0.375 ± 0.075. With “Scaffold attachment factor B1 L34Y, Q15424” the abundance fitness was -0.316 ± 0.056. Work on “Scaffold attachment factor B1 L39A, Q15424” yielded an abundance fitness of -0.556 ± 0.062. “Scaffold attachment factor B1 L39C, Q15424” showed an abundance fitness of -0.745 ± 0.074. Work on “Scaffold attachment factor B1 L39D, Q15424” yielded an abundance fitness of -1.12 ± 0.13. “Scaffold attachment factor B1 L39E, Q15424” gave an abundance fitness of -0.753 ± 0.06. “Scaffold attachment factor B1 L39F, Q15424” showed an abundance fitness of -0.665 ± 0.089. With “Scaffold attachment factor B1 L39G, Q15424” the abundance fitness was -0.814 ± 0.052. In the case of “Scaffold attachment factor B1 L39H, Q15424”, the abundance fitness is reported as -0.766 ± 0.12. For “Scaffold attachment factor B1 L39I, Q15424”, the abundance fitness was -0.264 ± 0.1. “Scaffold attachment factor B1 L39K, Q15424” showed an abundance fitness of -0.996 ± 0.072. Substance “Scaffold attachment factor B1 L39M, Q15424” has an abundance fitness of -0.304 ± 0.076. Work on “Scaffold attachment factor B1 L39N, Q15424” yielded an abundance fitness of -0.87 ± 0.066. Work on “Scaffold attachment factor B1 L39P, Q15424” yielded an abundance fitness of -0.77 ± 0.1. With “Scaffold attachment factor B1 L39Q, Q15424” the abundance fitness was -0.764 ± 0.072. Substance “Scaffold attachment factor B1 L39R, Q15424” has an abundance fitness of -0.894 ± 0.05. With “Scaffold attachment factor B1 L39S, Q15424” the abundance fitness was -0.877 ± 0.056. In the case of “Scaffold attachment factor B1 L39T, Q15424”, the abundance fitness is reported as -0.983 ± 0.091. For “Scaffold attachment factor B1 L39Y, Q15424”, the abundance fitness was -0.824 ± 0.093. “Scaffold attachment factor B1 L43A, Q15424” gave an abundance fitness of -0.225 ± 0.066. “Scaffold attachment factor B1 L43C, Q15424” showed an abundance fitness of -0.123 ± 0.068. “Scaffold attachment factor B1 L43D, Q15424” gave an abundance fitness of -0.858 ± 0.1. For “Scaffold attachment factor B1 L43E, Q15424”, the abundance fitness was -0.761 ± 0.08. “Scaffold attachment factor B1 L43F, Q15424” showed an abundance fitness of -1.21 ± 0.073. “Scaffold attachment factor B1 L43G, Q15424” gave an abundance fitness of -0.752 ± 0.05. Substance “Scaffold attachment factor B1 L43I, Q15424” has an abundance fitness of -1.02 ± 0.091. With “Scaffold attachment factor B1 L43K, Q15424” the abundance fitness was -0.9 ± 0.095. For “Scaffold attachment factor B1 L43M, Q15424”, the abundance fitness was -0.402 ± 0.075. In the case of “Scaffold attachment factor B1 L43N, Q15424”, the abundance fitness is reported as -0.936 ± 0.13. In the case of “Scaffold attachment factor B1 L43P, Q15424”, the abundance fitness is reported as -1.1 ± 0.11. Work on “Scaffold attachment factor B1 L43Q, Q15424” yielded an abundance fitness of -0.911 ± 0.063. “Scaffold attachment factor B1 L43S, Q15424” showed an abundance fitness of -0.653 ± 0.059. In the case of “Scaffold attachment factor B1 L43V, Q15424”, the abundance fitness is reported as -0.714 ± 0.06. “Scaffold attachment factor B1 L43W, Q15424” gave an abundance fitness of -1.09 ± 0.083. In the case of “Scaffold attachment factor B1 L43Y, Q15424”, the abundance fitness is reported as -1.22 ± 0.07.

From the Human Domainome abundance scans (Beltran et al. 2025)
